# Measured values from the RNAGym collection of RNA variant scans (doi:10.1038/ncomms11558).
# B1: mRNA-splicing (parent)
# chain: GAUCCAGAUCUAACUUGGGGUGGCUUUGUCUUCUUCUUUUGCCAAUUCCACUAAUUGUUUGGG
# Variants of: B1
# Experiment: exon inclusion enrichment score (log2 ratio to wild type); higher = more inclusion; FAS exon 6 minigene, HEK293
row,Variant,exon inclusion enrichment score
1,GAUCCAGAUCUAACUUGAGGUGGCUUUGUCUUCUUCUUUUGCCAAUUCCACUAAUUGUUUGGG [G18A],-0.636
2,GAUCCAGAUCUAACUUGUGGUGGCUUUGUCUUCUUCUUUUGCCAAUUCCACUAAUUGUUUGGG [G18U],0.258
3,GAUCCAGAUCUAACUUGCGGUGGCUUUGUCUUCUUCUUUUGCCAAUUCCACUAAUUGUUUGGG [G18C],0.301
4,GAUCCACAUCUAACUUGGGGUGGCUUUGUCUUCUUCUUUUGCCAAUUCCACUAAUUGUUUGGG [G7C],-0.443
5,GAUCCAUAUCUAACUUGGGGUGGCUUUGUCUUCUUCUUUUGCCAAUUCCACUAAUUGUUUGGG [G7U],-2.07
6,GAUCCAAAUCUAACUUGGGGUGGCUUUGUCUUCUUCUUUUGCCAAUUCCACUAAUUGUUUGGG [G7A],-1.15
7,GAUCCAGAUCUAACUUGGGGGGGCUUUGUCUUCUUCUUUUGCCAAUUCCACUAAUUGUUUGGG [U21G],-5.29
8,GAUCCAGAUCUAACUUGGGGAGGCUUUGUCUUCUUCUUUUGCCAAUUCCACUAAUUGUUUGGG [U21A],0.125
9,GAUCCAGAUCUAACUUGGGGCGGCUUUGUCUUCUUCUUUUGCCAAUUCCACUAAUUGUUUGGG [U21C],0.243
10,GAUCCAGAUCUAAAUUGGGGUGGCUUUGUCUUCUUCUUUUGCCAAUUCCACUAAUUGUUUGGG [C14A],-0.554
11,GAUCCAGAUCUAAUUUGGGGUGGCUUUGUCUUCUUCUUUUGCCAAUUCCACUAAUUGUUUGGG [C14U],-0.791
12,GAUCCAGAUCUAAGUUGGGGUGGCUUUGUCUUCUUCUUUUGCCAAUUCCACUAAUUGUUUGGG [C14G],-0.135
13,GAUCCAGAUCUAACUUGGGGUUGCUUUGUCUUCUUCUUUUGCCAAUUCCACUAAUUGUUUGGG [G22U],-0.589
14,GAUCCAGAUCUAACUUGGGGUCGCUUUGUCUUCUUCUUUUGCCAAUUCCACUAAUUGUUUGGG [G22C],0.067
15,GAUCCAGAUCUAACUUGGGGUAGCUUUGUCUUCUUCUUUUGCCAAUUCCACUAAUUGUUUGGG [G22A],-2.09
16,GAUCCAGAUAUAACUUGGGGUGGCUUUGUCUUCUUCUUUUGCCAAUUCCACUAAUUGUUUGGG [C10A],-0.393
17,GAUCCAGAUUUAACUUGGGGUGGCUUUGUCUUCUUCUUUUGCCAAUUCCACUAAUUGUUUGGG [C10U],0.024
18,GAUCCAGAUGUAACUUGGGGUGGCUUUGUCUUCUUCUUUUGCCAAUUCCACUAAUUGUUUGGG [C10G],-0.124
19,GAUCCAGAUCUAACUUGGGGUGGCUUUGACUUCUUCUUUUGCCAAUUCCACUAAUUGUUUGGG [U29A],0.257
20,GAUGCAGAUCUAACUUGGGGUGGCUUUGUCUUCUUCUUUUGCCAAUUCCACUAAUUGUUUGGG [C4G],-0.794
21,GAUACAGAUCUAACUUGGGGUGGCUUUGUCUUCUUCUUUUGCCAAUUCCACUAAUUGUUUGGG [C4A],-2.11

row,Variant,exon inclusion enrichment score
1,GAUUCAGAUCUAACUUGGGGUGGCUUUGUCUUCUUCUUUUGCCAAUUCCACUAAUUGUUUGGG [C4U],-2.86
2,GAUCCCGAUCUAACUUGGGGUGGCUUUGUCUUCUUCUUUUGCCAAUUCCACUAAUUGUUUGGG [A6C],-0.522
3,GAUCCGGAUCUAACUUGGGGUGGCUUUGUCUUCUUCUUUUGCCAAUUCCACUAAUUGUUUGGG [A6G],0.571
4,GAUCCUGAUCUAACUUGGGGUGGCUUUGUCUUCUUCUUUUGCCAAUUCCACUAAUUGUUUGGG [A6U],-0.25
5,GAUCCAGAUCUAACUUGGGGUGGCUUCGUCUUCUUCUUUUGCCAAUUCCACUAAUUGUUUGGG [U27C],0.72
6,GAUCCAGAUCUAACUUGGGGUGGCUUGGUCUUCUUCUUUUGCCAAUUCCACUAAUUGUUUGGG [U27G],-0.115
7,GAUCCAGAUCUAACUUGGGGUGGCUUAGUCUUCUUCUUUUGCCAAUUCCACUAAUUGUUUGGG [U27A],-0.647
8,GAUCCAGAUCUAACUUGGGGUGGCUCUGUCUUCUUCUUUUGCCAAUUCCACUAAUUGUUUGGG [U26C],-0.07
9,GAUCCAGAUCUAACUUGGGGUGGCUGUGUCUUCUUCUUUUGCCAAUUCCACUAAUUGUUUGGG [U26G],-0.547
10,GAUCCAGAUCUAACUUGGGGUGGCUAUGUCUUCUUCUUUUGCCAAUUCCACUAAUUGUUUGGG [U26A],0.39
11,GAUCCAGAUCUAACUUGGGCUGGCUUUGUCUUCUUCUUUUGCCAAUUCCACUAAUUGUUUGGG [G20C],0
12,GAUCCAGAUCUAACUUGGGUUGGCUUUGUCUUCUUCUUUUGCCAAUUCCACUAAUUGUUUGGG [G20U],-2.17
13,GAUCCAGAUCUAACUUGGGAUGGCUUUGUCUUCUUCUUUUGCCAAUUCCACUAAUUGUUUGGG [G20A],0.232
14,GAUCCAGAUCUAACUUGGGGUGGAUUUGUCUUCUUCUUUUGCCAAUUCCACUAAUUGUUUGGG [C24A],0.043
15,GAUCCAGAUCUAACUUGGGGUGGUUUUGUCUUCUUCUUUUGCCAAUUCCACUAAUUGUUUGGG [C24U],-1.64
16,GAUCCAGAUCUAACUUGGGGUGGGUUUGUCUUCUUCUUUUGCCAAUUCCACUAAUUGUUUGGG [C24G],-6.71
17,GAUCCAGAGCUAACUUGGGGUGGCUUUGUCUUCUUCUUUUGCCAAUUCCACUAAUUGUUUGGG [U9G],-0.183
18,GAUCCAGAACUAACUUGGGGUGGCUUUGUCUUCUUCUUUUGCCAAUUCCACUAAUUGUUUGGG [U9A],-0.097
19,GAUCCAGACCUAACUUGGGGUGGCUUUGUCUUCUUCUUUUGCCAAUUCCACUAAUUGUUUGGG [U9C],1.28
20,GAUCCAGAUCUAACUUGGGGUGGCGUUGUCUUCUUCUUUUGCCAAUUCCACUAAUUGUUUGGG [U25G],0.284
21,GAUCCAGAUCUAACUUGGGGUGGCAUUGUCUUCUUCUUUUGCCAAUUCCACUAAUUGUUUGGG [U25A],0.211
